According to patent publication US20220143136A1, “USE OF ANNEXINS IN PREVENTING AND TREATING MUSCLE MEMBRANE INJURY” (NORTHWESTERN UNIVERSITY, priority 2018, published 2022):
Changes are numbered by the printed parent chain. In names and notes the source's numbering stands.

Legend:
[1] = tested on: myofibers; test: Annexin repair cap formation after laser injury at multiple Ca2+ concentrations; assay type: cell-based, mouse; conditions: for Km1/2 (repair cap area as a function of Ca2+ concentration): Ca2+ 0-2 mM, modified Hill equation; for wildtype annexin A6 cap size with co-expressed mutant annexin A1 or A2: heterotypic co-expression; for repair cap diameter (DMAX) / cap size of the co-expressed wildtype annexin of the same type: wildtype+mutant vs wildtype+wildtype co-electroporation (homotypic)
Description: (§1) Electroporation, myofiber isolation, laser injury, cap and vesicle measurement. Flexor digitorum brevis (FDB) fibers were transfected with endo-free plasmid DNA by in vivo electroporation. Methods were described previously in (Demonbreun and McNally, 2015; Demonbreun et al., 2016b; DiFranco et al., 2009). Z-stack projections were acquired from consecutive acquisitions after the final time-lapse frame, approximately 4 minutes post damage, with a […] step size between slices. Z-stack renderings were constructed in FIJI. Measurement of the cap area and feret diameter were conducted from a single slice near the middle of the z-stack using FIJI imaging tools. Fibers expressing similar levels of tagged or GCaMP5G protein were compared. GCaMP5G Ca^2+ fluorescence was measured from the acquired timelapse images, using a standard rectangular ROI, placed inside the myofiber below the site of damage using FIJI. Fluorescence was expressed as F/F0. External vesicle number and GCaMP5G area were measured from endpoint z-stacks and max projection images using FIJI. Vesicles were considered external if they were found outside the sarcolemma assessed in brightfield and fluorescent channels. All measurements were acquired from myofibers isolated from at least n≥3 mice, n≥3 myofibers per mouse.
Calcium kinetics. FDB muscle was electroporated and isolated as described above. Myofibers were damaged in Ringers solution with Ca^2+ concentrations of 2 mM, 1 mM, 0.5 mM, 0.25 mM, 0.175 mM, 0.1 mM, 0.050 mM, and 0 mM. EDTA was added as a Ca^2+ chelating agent in only in the 0 mM Ca^2+ Ringers. Myofibers were isolated directly into 2 mM, 1 mM and 0.5 mM Ringers for those experiments respectively. For experiments using less than 0.5 mM Ca^2+ myofibers were isolated in 0.5 mM Ca^2+ Ringers and then diluted with 0 mM EDTA-free Ca^2+ Ringers. For 0 mM experiments, myofibers were isolated in 0.5 mM Ca^2+ Ringers and then replaced with 0 mM Ca^2++EDTA Ringers just prior to imaging. Co-electroporation of wildtype annexin+wildtype annexin constructs was performed in one mouse foot, while the contralateral foot was co-electroporated with wildtype annexin+mutant annexin. All measurements were acquired from myofibers isolated from at least n≥2 mice, n≥3 myofibers per mouse at each Ca^2+ concentration. Area-Ca^2+ curves were fitted with a Hill Curve at Ca^2+ concentrations ranging from 0-2 mM. Kinetic parameters were calculated using Prism Graphpad.
as §1, with “(Demonbreun A R, Quattrocelli M, Barefield D Y, Allen M V, Swanson K E,” for “(Demonbreun”, “McNally E M. An actin-dependent annexin complex mediates plasma membrane repair in muscle. The Journal of cell biology. 2016; 213(6):705-18; Demonbreun A R, and McNally E M. DNA Electroporation, Isolation and Imaging of Myofibers. Journal of visualized experiments: JoVE.” for “McNally,”, “106(106):e53551;” for “Demonbreun et al., 2016b;”, “M, Quinonez M, Capote J, and Vergara J. DNA transfection of mammalian skeletal muscles using in vivo electroporation. Journal of visualized experiments: JoVE. 2009; 32(32)).” for “et al., 2009).”, “Vesicles were considered external if they were found outside the sarcolemma assessed in brightfield and fluorescent channels. All measurements were acquired from myofibers isolated from at least n≥3 mice, n≥3 myofibers per mouse.” left out

[2] = tested on: myofibers; test: Bleb formation and intracellular Ca2+ fluorescence (GCaMP5G, Fluo-4) after laser injury with annexin overexpression; assay type: cell-based, mouse; conditions: for internal GCaMP5G Ca2+ fluorescence at the site of injury: vs GCaMP5G alone
Description: as §1
as §1, with “(Demonbreun A R, Quattrocelli M, Barefield D Y, Allen M V, Swanson K E,” for “(Demonbreun”, “McNally E M. An actin-dependent annexin complex mediates plasma membrane repair in muscle. The Journal of cell biology. 2016; 213(6):705-18; Demonbreun A R, and McNally E M. DNA Electroporation, Isolation and Imaging of Myofibers. Journal of visualized experiments: JoVE.” for “McNally,”, “106(106):e53551;” for “Demonbreun et al., 2016b;”, “M, Quinonez M, Capote J, and Vergara J. DNA transfection of mammalian skeletal muscles using in vivo electroporation. Journal of visualized experiments: JoVE. 2009; 32(32)).” for “et al., 2009).”
Calcium and pH indicator dye measurements. Wildtype FDBs were isolated and plated in Ringers on Matek glass-bottom dishes as described above. Twenty minutes prior to imaging, myofibers were loaded with Fluo-4 AM at 37° C. (F10489, ThermoFisher Scientific, Waltham, Mass.) or pHrodo AM (P35373, ThermoFisher Scientific, Waltham, Mass.) as described in the instruction manual. Fibers were rinsed once with Ringers then subsequently damaged and imaged on the Nikon A1R GaSP, as described above. Fluorescence intensity was measured using FIJI (NIH). phRodo change in fluorescence intensity was calculated as F/F0. Data was acquired from n=3 mice per experiment from multiple myofibers per mouse. […]

[3] = fluorescently tagged annexin expressed in myofibers

B1: annexin A1: annexin A1 with carboxyl-terminal turboGFP or tdTomato tag, expressed from plasmid in myofibers (protein, UniProt P10107 2-346, looked up)
Annexin A1: AMVSEFLKQARFLENQEQEYVQAVKSYKGGPGSAVSPYPSFNVSSDVAALHKAIMVKGVDEATIIDILTKRTNAQRQQIKAAYLQENGKPLDEVLRKALTGHLEEVVLAMLKTPAQFDADELRGAMKGLGTDEDTLIEILTTRSNEQIREINRVYREELKRDLAKDITSDTSGDFRKALLALAKGDRCQDLSVNQDLADTDARALYEAGERRKGTDVNVFTTILTSRSFPHLRRVFQNYGKYSQHDMNKALDLELKGDIEKCLTTIVKCATSTPAFFAEKLYEAMKGAGTRHKALIRIMVSRSEIDMNEIKVFYQKKYGISLCQAILDETKGDYEKILVALCGGN
modifications: C-terminal turboGFP or tdTomato tag
notes: annexin A1 with carboxyl-terminal turboGFP or tdTomato tag, expressed from plasmid in myofibers
In the case of B1, the “Km1/2 (repair cap area as a function of Ca2+ concentration)” value [1, 3] is reported as 0.17 mM and the “internal GCaMP5G Ca2+ fluorescence at the site of injury” value (from here on “internal GCaMP5G Ca2+ fluorescence”) ([2]; over 240 seconds of imaging) is reported as “significant reduction”.

B2: annexin A1 D171A: Ca2+-binding mutant of annexin A1 (D171A), plasmid expressed (protein, UniProt P10107 2-346, looked up, variant D171A)
Annexin A1: B1 Annexin A1 with D170A
modifications: GFP tag
For B2, the “wildtype annexin A6 cap size with co-expressed mutant annexin A1 or A2” value [1] was “minimal effect” and the “repair cap diameter (DMAX) / cap size of the co-expressed wildtype annexin of the same type” value (shortened to “repair cap diameter (DMAX) / cap size”) [1] was “significantly reduced”.

B3: A6D149A: annexin A6 D149A mutant, plasmid expressed (protein, UniProt P14824 2-673, looked up, variant D149A)
Annexin A6: AKIAQGAMYRGSVHDFPEFDANQDAEALYTAMKGFGSDKESILELITSRSNKQRQEICQNYKSLYGKDLIEDLKYELTGKFERLIVNLMRPLAYCDAKEIKDAISGVGTDEKCLIEILASRTNEQMHQLVAAYKDAYERDLESDIIGATSGHFQKMLVVLLQGTRENDDVVSEDLVQQDVQDLYEAGELKWGTDEAQFIYILGNRSKQHLRLVFDEYLKTTGKPIEASIRGELSGDFEKLMLAVVKCIRSTPEYFAERLFKAMKGLGTRDNTLIRIMVSRSELDMLDIREIFRTKYEKSLYSMIKNDTSGEYKKALLKLCGGDDDAAGQFFPEAAQVAYQMWELSAVSRVELKGTVCAANDFNPDADAKALRKAMKGIGTDEATIIDIVTHRSNAQRQQIRQTFKSHFGRDLMADLKSEISGDLARLILGLMMPPAHYDAKQLKKAMEGAGTDEKTLIEILATRTNAEIRAINEAYKEDYHKSLEDALSSDTSGHFRRILISLATGNREEGGENRDQAQEDAQVAAEILEIADTPSGDKTSLETRFMTVLCTRSYPHLRRVFQEFIKKTNYDIEHVIKKEMSGDVKDAFVAIVQSVKNKPLFFADKLYKSMKGAGTDEKTLTRVMVSRSEIDLLNIRREFIEKYDKSLHQAIEGDTSGDFMKALLALCGGED
modifications: GFP tag
notes: annexin A6 D149A mutant, plasmid expressed
With B3 the “repair cap diameter (DMAX) / cap size” value [1] was “little effect”.

B4: annexin A2: annexin A2 with carboxyl-terminal turboGFP or tdTomato tag, expressed from plasmid in myofibers (protein, UniProt P07356 2-339, looked up)
Annexin A2: STVHEILCKLSLEGDHSTPPSAYGSVKPYTNFDAERDALNIETAVKTKGVDEVTIVNILTNRSNVQRQDIAFAYQRRTKKELPSALKSALSGHLETVILGLLKTPAQYDASELKASMKGLGTDEDSLIEIICSRTNQELQEINRVYKEMYKTDLEKDIISDTSGDFRKLMVALAKGRRAEDGSVIDYELIDQDARELYDAGVKRKGTDVPKWISIMTERSVCHLQKVFERYKSYSPYDMLESIKKEVKGDLENAFLNLVQCIQNKPLYFADRLYDSMKGKGTRDKVLIRIMVSRSEVDMLKIRSEFKRKYGKSLYYYIQQDTKGDYQKALLYLCGGDD
modifications: C-terminal turboGFP or tdTomato tag
notes: annexin A2 with carboxyl-terminal turboGFP or tdTomato tag, expressed from plasmid in myofibers
In the case of B4, the “lowest Ca2+ concentration at which a discernable repair cap formed” value [1, 3] is reported as 0.05 mM, the “Km1/2 (repair cap area as a function of Ca2+ concentration)” value [1, 3] is reported as 0.067 mM and the “number of extracellular (GCaMP5G-positive) blebs at the membrane lesion” value ([2]; annexin overexpression vs annexin A1 overexpression or GCaMP5G alone) is reported as “significantly more blebs”. The “internal GCaMP5G Ca2+ fluorescence” value ([2]; first 20 seconds post injury) was “significant reduction” and the “internal GCaMP5G Ca2+ fluorescence” value ([2]; over 240 seconds of imaging) was “significant reduction”.

B5: A2D161A: Ca2+-binding mutant of annexin A2 (D161A), plasmid expressed (protein, UniProt P07356 2-339, looked up, variant D161A)
Annexin A2: B4 Annexin A2 with D161A
modifications: GFP tag
In the case of B5, the “wildtype annexin A6 cap size with co-expressed mutant annexin A1 or A2” value [1] is reported as “minimal effect” and the “repair cap diameter (DMAX) / cap size” value [1] is reported as “significantly reduced”.
